Values quoted from earlier work in US8501705B2, “Methods and materials for treating autoimmune and/or complement mediated diseases and conditions” (The Board of Regents of the University of Texas System, priority 2003, dated 2013).

Target: C3 (Mus musculus, UniProt P01027)
Conditions: inhibition of C3

Sequence of C3 (P01027 25-1663): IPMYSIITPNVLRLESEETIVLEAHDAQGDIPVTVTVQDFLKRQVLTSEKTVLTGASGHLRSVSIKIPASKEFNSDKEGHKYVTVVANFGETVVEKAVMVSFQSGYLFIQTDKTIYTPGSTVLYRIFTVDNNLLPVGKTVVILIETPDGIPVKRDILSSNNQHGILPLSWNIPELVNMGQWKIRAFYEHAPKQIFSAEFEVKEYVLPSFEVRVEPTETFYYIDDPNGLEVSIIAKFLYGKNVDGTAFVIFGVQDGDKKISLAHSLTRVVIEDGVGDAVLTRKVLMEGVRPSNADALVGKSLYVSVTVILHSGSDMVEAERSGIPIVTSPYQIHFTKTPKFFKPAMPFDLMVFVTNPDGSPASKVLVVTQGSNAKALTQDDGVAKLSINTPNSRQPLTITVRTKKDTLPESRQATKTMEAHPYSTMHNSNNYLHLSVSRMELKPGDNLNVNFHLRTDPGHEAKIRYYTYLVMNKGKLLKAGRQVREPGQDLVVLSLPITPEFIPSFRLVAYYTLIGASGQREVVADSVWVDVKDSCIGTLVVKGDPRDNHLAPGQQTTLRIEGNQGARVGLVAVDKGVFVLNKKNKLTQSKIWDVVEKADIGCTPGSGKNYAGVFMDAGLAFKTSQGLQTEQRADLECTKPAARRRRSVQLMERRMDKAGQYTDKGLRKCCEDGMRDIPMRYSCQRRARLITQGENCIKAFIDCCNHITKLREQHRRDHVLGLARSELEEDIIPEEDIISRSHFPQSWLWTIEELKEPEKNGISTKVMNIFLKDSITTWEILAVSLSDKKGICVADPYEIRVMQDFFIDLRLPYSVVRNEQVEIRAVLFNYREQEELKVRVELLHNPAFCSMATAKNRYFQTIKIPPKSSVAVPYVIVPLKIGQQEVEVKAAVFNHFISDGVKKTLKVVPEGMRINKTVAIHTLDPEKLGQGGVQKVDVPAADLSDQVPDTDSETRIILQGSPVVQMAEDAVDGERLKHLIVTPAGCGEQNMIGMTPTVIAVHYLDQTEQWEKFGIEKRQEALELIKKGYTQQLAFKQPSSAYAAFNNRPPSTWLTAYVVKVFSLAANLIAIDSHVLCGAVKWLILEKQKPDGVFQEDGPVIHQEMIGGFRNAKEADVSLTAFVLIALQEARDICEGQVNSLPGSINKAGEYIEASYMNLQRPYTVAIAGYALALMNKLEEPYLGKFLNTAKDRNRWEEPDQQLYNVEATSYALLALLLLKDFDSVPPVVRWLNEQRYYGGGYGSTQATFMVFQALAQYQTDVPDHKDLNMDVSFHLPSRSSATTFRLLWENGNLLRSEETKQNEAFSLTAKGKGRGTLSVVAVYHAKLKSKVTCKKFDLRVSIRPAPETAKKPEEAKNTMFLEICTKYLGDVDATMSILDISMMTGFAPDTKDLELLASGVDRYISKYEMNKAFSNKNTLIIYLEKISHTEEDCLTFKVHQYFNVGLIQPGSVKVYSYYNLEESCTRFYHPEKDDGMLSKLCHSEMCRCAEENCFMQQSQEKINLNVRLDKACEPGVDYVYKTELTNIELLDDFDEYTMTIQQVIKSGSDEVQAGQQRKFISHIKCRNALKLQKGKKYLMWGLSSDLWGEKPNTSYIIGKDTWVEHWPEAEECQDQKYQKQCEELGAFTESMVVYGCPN

cobra venom factor
EAMG disease induction: inhibits disease induction
